In the supplement of paper PMC10567573:

B1: KCNA3 (parent)
chain: YQSGGRIRRPVNVPIDIFSEEIRF

Variants of: B1
Test: protein stability index of a GFP-peptide fusion (GPS, HEK-293T) (PSI 1-6); higher = more stable
Conditions: c terminus: a fixed tail appended
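Note: lentivirally expressed fusions sorted by FACS into six bins by GFP to DsRed ratio, PSI derived from sequencing read proportions per bin multiplied by bin number.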

Variant	protein stability index
YQSGGRIRRPVNVPIDIFHEEIRF [S19H]	1.49
YQSGGRIRRPVNVPIDIFEEEIRF [S19E]	1.87
YQSGGRIRRPVNVPIDIFCEEIRF [S19C]	1.39
YQSGGRIRRPVNVPIDIFQEEIRF [S19Q]	1.68
YQSGGRIRRPVNVPIDIFFEEIRF [S19F]	1.51
YQSGGRIRRPVNVPIDIFREEIRF [S19R]	1.64
YQSGGRIRRPVNVPIDIFLEEIRF [S19L]	1.41
YQSGGRIRRPVNVPIDIFIEEIRF [S19I]	1.85
YQSGGRIRRPVNVPIDIFNEEIRF [S19N]	2.74
YQSGGRIRRPVNVPIDIFDEEIRF [S19D]	2.43
YQSGGRIRRPVNVPIDIFPEEIRF [S19P]	1.73
YQSGGRIRRPVNVPIDIFKEEIRF [S19K]	1.54
YQSGGRIRRPVNVPIDIFAEEIRF [S19A]	1.83
YQSGGRIRRPVNVPIDIFTEEIRF [S19T]	2.6
YQSGGRIRRPVNVPIDIFGEEIRF [S19G]	2.52
YQSGGRIRRPVNVPIDIFYEEIRF [S19Y]	2.4
YQSGGRIRRPVNVPIDIFSEEMRF [I22M]	2.29
YQSGGRIRRPVNVPIDIFSEEPRF [I22P]	1.98
YQSGGRIRRPVNVPIDIFSEELRF [I22L]	2.06
YQSGGRIRRPVNVPIDIFSEETRF [I22T]	2.2
YQSGGRIRRPVNVPIDIFSEEHRF [I22H]	2.71
YQSGGRIRRPVNVPIDIFSEERRF [I22R]	2.68
YQSGGRIRRPVNVPIDIFSEEARF [I22A]	1.34
YQSGGRIRRPVNVPIDIFSEEFRF [I22F]	1.69

Variant	protein stability index
YQSGGRIRRPVNVPIDIFSEEKRF [I22K]	2.31
YQSGGRIRRPVNVPIDIFSEESRF [I22S]	2.29
YQSGGRIRRPVNVPIDIFSEEVRF [I22V]	3.48
YQSGGRIRRPVNVPIDIFSEEQRF [I22Q]	2.86
YQSGGRIRRPVNVPIDIFSEEGRF [I22G]	1.68
YQSGGRIRRPVNVPIDIFSEEDRF [I22D]	2.5
YQSGGRIRRPVNVPIDIFSEEYRF [I22Y]	1.8
YQSGGRIRRPVNVPIDIFSEENRF [I22N]	2.82
YQSGGRIRRPVNVPIDITSEEIRF [F18T]	2.4
YQSGGRIRRPVNVPIDIYSEEIRF [F18Y]	2.2
YQSGGRIRRPVNVPIDIVSEEIRF [F18V]	2.41
YQSGGRIRRPVNVPIDIFSNEIRF [E20N]	2.52
YQSGGRIRRPVNVPIDIFSHEIRF [E20H]	2.04
YQSGGRIRRPVNVPIDIFSTEIRF [E20T]	1.53
YQSGGRIRRPVNVPIDIFSPEIRF [E20P]	2.11
YQSGGRIRRPVNVPIDIFSYEIRF [E20Y]	2.34
YQSGGRIRRPVNVPIDIFSSEIRF [E20S]	1.82
YQSGGRIRRPVNVPIDIFSFEIRF [E20F]	2.93
YQSGGRIRRPVNVPIDIFSCEIRF [E20C]	2.19
YQSGGRIRRPVNVPIDIFSQEIRF [E20Q]	1.68
YQSGGRIRRPVNVPIDIFSREIRF [E20R]	1.61
YQSGGRIRRPVNVPIDIFSMEIRF [E20M]	1.96
YQSGGRIRRPVNVPIDIFSKEIRF [E20K]	2.29
YQSGGRIRRPVNVPIDIFSDEIRF [E20D]	2.26

Variant	protein stability index
YQSGGRIRRPVNVPIDIFSGEIRF [E20G]	1.37
YQSGGRIRRPVNVPIDIFSAEIRF [E20A]	2.06
YQSGGRIRRPVNVPIDIFSEEIPF [R23P]	1.97
YQSGGRIRRPVNVPIDIFSEEIFF [R23F]	1.53
YQSGGRIRRPVNVPIDIFSEEIQF [R23Q]	1.72
YQSGGRIRRPVNVPIDIFSEEIKF [R23K]	2.3
YQSGGRIRRPVNVPIDIFSEEIDF [R23D]	3
YQSGGRIRRPVNVPIDIFSEEIWF [R23W]	1.05
YQSGGRIRRPVNVPIDIFSEEILF [R23L]	1.28
YQSGGRIRRPVNVPIDIFSEEICF [R23C]	1.23
YQSGGRIRRPVNVPIDIFSEEIVF [R23V]	1.68
YQSGGRIRRPVNVPIDIFSEEIAF [R23A]	2.29
YQSGGRIRRPVNVPIDIFSEEIEF [R23E]	2.19
YQSGGRIRRPVNVPIDIFSEEINF [R23N]	1.77
YQSGGRIRRPVNVPIDIFSEEIHF [R23H]	2.37
YQSGGRIRRPVNVPIDIFSEEITF [R23T]	1.62
YQSGGRIRRPVNVPIDIFSEEIMF [R23M]	1.67
YQSGGRIRRPVNVPIDIFSEPIRF [E21P]	1.65
YQSGGRIRRPVNVPIDIFSEMIRF [E21M]	1.87
YQSGGRIRRPVNVPIDIFSEKIRF [E21K]	1.84
YQSGGRIRRPVNVPIDIFSESIRF [E21S]	1.48
YQSGGRIRRPVNVPIDIFSENIRF [E21N]	2.33
YQSGGRIRRPVNVPIDIFSEHIRF [E21H]	2
YQSGGRIRRPVNVPIDIFSEFIRF [E21F]	1.62

Variant	protein stability index
YQSGGRIRRPVNVPIDIFSECIRF [E21C]	2.51
YQSGGRIRRPVNVPIDIFSEIIRF [E21I]	1.6
YQSGGRIRRPVNVPIDIFSELIRF [E21L]	2.09
YQSGGRIRRPVNVPIDIFSEAIRF [E21A]	2.27
YQSGGRIRRPVNVPIDIFSEVIRF [E21V]	1.97
YQSGGRIRRPVNVPIDIFSEYIRF [E21Y]	2.56
YQSGGRIRRPVNVPIDIFSEDIRF [E21D]	1.56
YQSGGRIRRPVNVPIDIFSEQIRF [E21Q]	2.75
YQSGGRIRRPVNVPIDIFSETIRF [E21T]	1.95
YQSGGRIRRPVNVPIDIFSERIRF [E21R]	2.38
YQSGGRIRRPVNVPIDIFSEEIRD [F24D]	2.1
YQSGGRIRRPVNVPIDIFSEEIRH [F24H]	2.4
YQSGGRIRRPVNVPIDIFSEEIRI [F24I]	2.47
YQSGGRIRRPVNVPIDIFSEEIRG [F24G]	1.62
YQSGGRIRRPVNVPIDIFSEEIRQ [F24Q]	2.31
YQSGGRIRRPVNVPIDIFSEEIRK [F24K]	1.94
YQSGGRIRRPVNVPIDIFSEEIRL [F24L]	2.37
YQSGGRIRRPVNVPIDIFSEEIRC [F24C]	2.32
YQSGGRIRRPVNVPIDIFSEEIRP [F24P]	2.26
YQSGGRIRRPVNVPIDIFSEEIRN [F24N]	3.24
YQSGGRIRRPVNVPIDIFSEEIRA [F24A]	2.53
YQSGGRIRRPVNVPIDIFSEEIRM [F24M]	2.52
